The results in this text go back to patent US12517112B2, “Immune cell organoid co-cultures” (Koninklijke Nederlandse Akademie van Wetenschappen, priority 2017, dated 2026).

Experiment [1] concerns CD274 (PD-L1). Nature of the experiment: PD-L1 expression in colon organoid lines upon IFN-γ stimulation (qPCR and flow cytometry). It is filed as cell-based. The note with it: organoids treated with 20 ng/mL recombinant human IFN-γ. The source says:
(§1) Cells were sorted as single cells into 96-well plates using a BD FACS Aria (BD Biosciences) cytometer. For flow cytometry, the following antibodies were used (all anti-human): CD8-PE (clone RPA-T8), CD45-PerCP-Cy5.5 (2D1), CD274 (PD-L1)-APC (MIH1) (all BD Biosciences), CD279 (PD-1)-PE (EH12.2H7, Biolegend), HLA-A2^− PE (BB7.2, Santa Cruz).
(In qPCR the cycle at which signal appears reflects the starting amount.)

For experiment [2], the system named is HLA-A2. Kind of experiment: HLA-A2 expression on CRC organoid lines with and without IFN-γ stimulation (flow cytometry). The settings on record: HLA-A2 negative CRC organoids, 20 ng/ml recombinant human IFN-γ. It is filed as cell-based. As to the method:
FIG. 10. HLA-A2 expression on clonally expanded HLA-A2^+ and HLA-A2^− CRC organoid lines. […] Flow cytometry analysis of HLA-A2 expression on normal (left panel), HLA-A2^+ CRC (middle panel) and HLA-A2^− CRC (right panel) lines with and without stimulation with 20 ng/ml recombinant human IFN-γ.
as §1

B1: IFN-γ: recombinant human interferon gamma used to stimulate organoids (20 ng/mL) (protein, UniProt P01579 24-161, looked up)
Interferon gamma: QDPYVKEAENLKKYFNAGHSDVADNGTLFLGILKNWKEESDRKIMQSQIVSFYFKLFKNFKDDQSIQKSVETIKEDMNVKFFNSNKKKRDDFEKLTNYSVTDLNVQRKAIHELIQVMAELSPAAKTGKRKRSQMLFRG
With B1, the “PD-L1 expression on transcript and protein level” value in experiment [1] was “dramatically upregulated”. The HLA-A2 re-expression entry in experiment [2] is recorded as “did not trigger HLA-A2 re-expression”.
